Here are results for 8 molecules from patent US20230220589A1.

Experiment [1] has as its target M90-modified A NTAA target peptide. In words: affinity comparison between P1 residues (method not specified; BLI / encoding assay).
Experiment [2] has as its target M12-modified L NTAA target peptides (M12-L-P2-peptide). In words: multiplex encoding assay on 288 immobilized peptides (FIG. 10); holds for at least 11 P2 residues.
Experiment [3] has as its target M90-modified F NTAA target peptide. The experiment in a line: affinity comparison between P1 residues (method not specified; BLI / encoding assay).
The target of experiment [4] is M2014-modified Y NTAA target peptides (M2014-Y-P2-peptide). The experiment in a line: Gini coefficient of P2 tolerance from multiplex encoding heatmap.
For experiment [5] the target is unchanged. In words: Gini coefficient of P1 selectivity from multiplex encoding heatmap.
Experiment [6] concerns the target M90-modified L NTAA target peptide. The experiment in a line: affinity comparison between P1 residues (method not specified; BLI / encoding assay).
For experiment [7], the target named is M44-modified Y NTAA target peptides (M44-Y-P2-peptide). In words: Gini coefficient of P2 tolerance from multiplex encoding heatmap.
For experiment [8] the target is unchanged. The experiment in a line: Gini coefficient of P1 selectivity from multiplex encoding heatmap.
Experiment [9] has as its target M48-modified L NTAA target peptides (M48-L-P2-peptide). The experiment in a line: Gini coefficient of P2 tolerance from multiplex encoding heatmap.
Experiment [10] shares this target. The experiment in a line: Gini coefficient of P1 selectivity from multiplex encoding heatmap.
In experiment [11] the target is M12-modified F NTAA target peptides (M12-F-P2-peptide). In words: multiplex encoding assay on 288 immobilized peptides (FIG. 9); holds for at least 14 P2 residues.

B1: SEQ ID NO 54 (designed binder, not shown: small tags and cut ends; large carriers)
chain: QIPLCANLVPVPITNATLDRITGKWFVIASATRNEEYNKSVQRQQGTVFYYTPNKTEDTIFVRRYQTRQNQCFYNSSYLNVQRENGTVSFYEGGRELVFHLLFLRDTKTLMWGLYLDDEKNWGLEFFADKPETTKEQLGEFYEALDCLRIPRSDVMYTDWKKDKCEPLEKQHEKERKQEEGES
In experiment [1], B1 had a fold affinity over an otherwise identical peptide with a different P1 of more than 2 fold.

B2: engineered M12-L binder (SEQ ID NO: 49) (designed binder, not shown: small tags and cut ends; large carriers)
chain: QVSVQPNFQQDKFLGRWFVAGIASNSSWSREKIAALSFAKGVVAPATDGGLNYTETVLRKNQCETQTVLLQPAGSLGSYSARSPHQGSTRSFSVVETDYDQYALLYAQGSKGPGEDDRVAGLWSRTQTPRAELKEKFTAFSKAQGFTEDTIVFLPQTDKCMTEQ
In [2], B2 had an encoding efficiency (fraction of recording tags encoded) of more than 0.15.

B3: SEQ ID NO 51 (designed binder, not shown: small tags and cut ends; large carriers)
chain: QIPLCANLVPVPITNATLDRITGKWFHIASAIRNEEYNKSVQRQQSTHFYITPNKTEDTIFTRVYQTRQNQCFYNSSYLNVQRENGTVSLYSGGREVVGHLLFLRDTKTLMWGTYLDDEKNWGLEFWADKPETTKEQLGEFYEALDCLRIPRSDVMYTDWKKDKCEPLEKQHEKERKQEEGES
As to B3, the fold affinity over an otherwise identical peptide with a different P1 in [3] was more than 2 fold.

B4: SEQ ID NO 48 (designed binder, not shown: small tags and cut ends; large carriers)
chain: QDSTQNLIPAPSLLTVPLQPDFRSDQFRGRWYVVGLAGNAVQKKTEGSFTMLSLIYELQENNSYNVTAIFVRDQDQGCRYVIDTLVPSSRAGQFTPGSMGRFPQVQSYNVQVATTDYNQFAMVFVRVTSENKQYFEITLLGRTKELSPELKERFTRFAKSLGLKDDNIIFSVPTDQCIDNSAWSHPQFEK
In experiment [4], B4 showed a P2 score of 0.255. This molecule came in with a P1 score in experiment [5] of 0.238.

B5: SEQ ID NO 53 (designed binder, not shown: small tags and cut ends; large carriers)
chain: QIPLCANLVPVPITNATLDRITGKWFLIASASRNEEYNKSVQGSQNTAFYFTPNKTEDTIFLRRYQTRQNQCFYNSSYLNVQRENGTVSSYFGGRENVIHLLFLRDTKTLMLGRYLDDEKNWGLEFYADKPETTKEQLGEFYEALDCLRIPRSDVMYTDWKKDKCEPLEKQHEKERKQEEGES
The molecule B5 came in with a fold affinity over an otherwise identical peptide with a different P1 in experiment [6] of more than 2 fold.

B6: SEQ ID NO 45 (designed binder, not shown: small tags and cut ends; large carriers)
chain: TVPDRSEIAGKWYVVALASNTEFLLREKDSLKSAMARISFLGEDELKVSYARPLPNGCLKLEATMKKTSDDGEVYLSRSAKLKVEVLDTDYKSYAVIYATPVKDGRTRHYMALYSRSPEVSPAATAIFRKLAGERNYTDEMVAMLPRQEECTVDEV
On to B6, for which, in experiment [7], the P2 score came out at 0.426. This molecule returned a P1 score in experiment [8] of 0.301.

B7: SEQ ID NO 27 (designed binder, not shown: small tags and cut ends; large carriers)
chain: QVSVQPNFQQDKFLGRWFIAGQASNSSWQREKCAALSRAKVVVAPATDGGLNLTMTLLRKNQCETRTTLLQPAGSLGSYSYRSPHLGSTVSWSVVETDYDQYALMYVQGSKGPGEDQRFAILWSRTQTPRAELKEKFTAFSKAQGFTEDTIVFLPQTDKCMTEQ
In the case of B7, the P2 score in [9] was 0.312. In addition, the P1 score in experiment [10] was determined as 0.0571.

B8: engineered M12-F binder (SEQ ID NO: 50) (designed binder, not shown: small tags and cut ends; large carriers)
chain: GPVPTPPDNIQVQENFNISRIYGKWYPLAMGSTSPYLKKSMDIMTPSYLVLGEGATEAEISWTETFWRKGVCEEGSGALEKTDTDGKFLYHKSKWNITEERYVVHTNYDEYAIVLVKKFSRHHGPTIEAVLMGRAPQLRETLLQDFRVVAQGVGIPEDSIFTMADRGECVPGEQ
As to B8, the encoding efficiency (fraction of recording tags encoded) in experiment [11] was more than 0.15.
